Results: paper PMC5832771, “Recognition motif and mechanism of ripening inhibitory peptides in plant hormone receptor ETR1” (Scientific Reports, 2018)
Residues, ends and D or L forms follow the SMILES beside them. No end group written: not given here.

T1: AtETR1^1–307 (TM–GAF) (Arabidopsis thaliana, UniProt P49333 1-307, Alexa Fluor 488 C5 maleimide (thiol-reactive) label)
T1 construct: pTEV-16b: N-terminal His10, linker SSGH, TEV site ENLYFQG; no cleavage described; source: E. coli C43 (DE3), purified (membranes solubilised in fos-choline-16, Ni-NTA HisTrap)
T1 sequence (looked up): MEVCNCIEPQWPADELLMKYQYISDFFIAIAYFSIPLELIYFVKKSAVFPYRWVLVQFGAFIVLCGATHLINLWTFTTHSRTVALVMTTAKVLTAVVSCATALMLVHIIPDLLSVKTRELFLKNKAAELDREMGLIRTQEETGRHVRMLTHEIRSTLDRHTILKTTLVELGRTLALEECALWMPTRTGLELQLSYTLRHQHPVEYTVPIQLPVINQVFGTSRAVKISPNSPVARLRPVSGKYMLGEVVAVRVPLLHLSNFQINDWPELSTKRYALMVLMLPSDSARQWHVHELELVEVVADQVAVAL

B1: extended peptide N30P (peptide)
peptide: GRTGTAAGDVAFPKGKENLASVLKRYKRRL-NH2
notes: source: synthetic peptide, bought: GenScript (TFA salt, >98% HPLC purity)
B2: extended peptide NIP-1 (peptide)
peptide: AFPKGKENLASVLKRYKRRL-NH2
notes: as for B1
B3: extended peptide N41P (peptide)
peptide: KDVEMAISSRKGRTGTAAGDVAFPKGKENLASVLKRYKRRL-NH2
notes: as for B1

molecular target: T1, AtETR1^1–307 (TM–GAF); experiment: MST; Alexa Fluor 488-labelled AtETR1 construct at 25 nM, peptide titrated; 50 mM Tris/HCl pH 8.0, 300 mM NaCl, 0.15 g/L fos-choline-16; 23-25 °C; temperature jump evaluated, one-binding-site model; conditions: both partners purified

Molecule	binding result
B1	binds
B2	binds
B3	binds

molecular target: T2, AtETR1^1–307 (TM–GAF) (Arabidopsis thaliana, UniProt P49333); experiment: biochemical; format: binding; conditions: not given
T2 construct: made in house; host or cells: E. coli C43 (DE3)

Molecule	Kd [nM]
CC(C)C[C@H](NC(=O)[C@H](CCCNC(=N)N)NC(=O)[C@H](CCCNC(=N)N)NC(=O)[C@H](CCCCN)NC(=O)[C@H](Cc1ccc(O)cc1)NC(=O)[C@H](CCCNC(=N)N)NC(=O)[C@H](CCCCN)NC(=O)[C@H](CC(C)C)NC(=O)[C@@H](NC(=O)[C@H](CO)NC(=O)[C@H](C)NC(=O)[C@H](CC(C)C)NC(=O)[C@H](CC(N)=O)NC(=O)[C@H](CCC(=O)O)NC(=O)[C@H](CCCCN)NC(=O)CNC(=O)[C@H](CCCCN)NC(=O)[C@@H]1CCCN1C(=O)[C@H](Cc1ccccc1)NC(=O)[C@H](C)N)C(C)C)C(N)=O [NIP-1] (H-AFPKGKENLASVLKRYKRRL-NH2)	68 ± 15
CC(C)C[C@H](NC(=O)[C@H](CCCNC(=N)N)NC(=O)[C@H](CCCNC(=N)N)NC(=O)[C@H](CCCCN)NC(=O)[C@H](Cc1ccc(O)cc1)NC(=O)[C@H](CCCNC(=N)N)NC(=O)[C@H](CCCCN)NC(=O)[C@H](CC(C)C)NC(=O)[C@@H](NC(=O)[C@H](CO)NC(=O)[C@H](C)NC(=O)[C@H](CC(C)C)NC(=O)[C@H](CC(N)=O)NC(=O)[C@H](CCC(=O)O)NC(=O)[C@H](CCCCN)NC(=O)CNC(=O)[C@H](CCCCN)NC(=O)[C@@H]1CCCN1C(=O)[C@H](Cc1ccccc1)NC(=O)[C@H](C)NC(=O)[C@@H](NC(=O)[C@H](CC(=O)O)NC(=O)CNC(=O)[C@H](C)NC(=O)[C@H](C)NC(=O)[C@@H](NC(=O)CNC(=O)[C@@H](NC(=O)[C@H](CCCNC(=N)N)NC(=O)CN)[C@@H](C)O)[C@@H](C)O)C(C)C)C(C)C)C(N)=O [N30P] (H-GRTGTAAGDVAFPKGKENLASVLKRYKRRL-NH2)	57 ± 19
KDVEMAISSRKGRTGTAAGDVAFPKGKENLASVLKRYKRRL-NH2 [N41P]	30 ± 10
